Assay results from patent publication EP4471048A1, “PEPTIDE INHIBITORS OF INTERLEUKIN-23 RECEPTOR” (Zealand Pharma A/S, priority 2023, dated 2024).
*1 amine or outer side, *2 acyl side, *3 side chain or, on linkers, in order; H or OH if unused. Bridges are numbered along the chain shown (N, C = ends). Where no end group is shown, it is not given here. [ ]: non-standard residue; d: D form. 4‑Aminomethyl‑phenylacetyl = 4-aminomethyl-phenylacetyl unit, its amine closes the lactam, O=C(Cc1ccc(CN[*:1])cc1)[*:2]; 2Nal = N[C@@H](Cc1ccc2ccccc2c1)C(=O)O; AEF = NCCOc1ccc(C[C@H](N)C(=O)O)cc1; 3Pal = N[C@@H](Cc1cccnc1)C(=O)O; αMeL = CC(C)C[C@](C)(N)C(=O)O; β3hK = NCCCC[C@H](N)CC(=O)O; Dab = NCC[C@H](N)C(=O)O

T1: human IL-23R endogenously expressed on DB cells (human, UniProt Q5VWK5 24-629)
T1 sequence (looked up): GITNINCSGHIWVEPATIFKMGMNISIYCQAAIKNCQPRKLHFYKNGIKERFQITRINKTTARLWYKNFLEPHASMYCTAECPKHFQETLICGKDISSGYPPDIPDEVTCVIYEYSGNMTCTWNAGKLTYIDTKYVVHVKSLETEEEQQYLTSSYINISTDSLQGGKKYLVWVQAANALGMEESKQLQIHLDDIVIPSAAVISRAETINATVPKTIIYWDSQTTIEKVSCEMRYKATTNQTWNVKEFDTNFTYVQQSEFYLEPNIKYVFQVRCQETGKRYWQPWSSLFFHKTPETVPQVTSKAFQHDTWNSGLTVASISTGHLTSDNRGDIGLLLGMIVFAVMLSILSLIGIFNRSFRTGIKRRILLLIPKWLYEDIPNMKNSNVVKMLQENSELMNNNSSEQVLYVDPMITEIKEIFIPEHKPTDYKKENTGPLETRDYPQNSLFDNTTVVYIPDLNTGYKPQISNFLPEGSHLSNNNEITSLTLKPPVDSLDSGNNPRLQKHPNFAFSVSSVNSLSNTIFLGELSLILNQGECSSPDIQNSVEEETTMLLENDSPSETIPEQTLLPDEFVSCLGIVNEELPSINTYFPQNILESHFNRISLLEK

T2: Nluc-IL23R fusion protein (human, UniProt Q5VWK5 22-629)
T2 construct: range 22-629; Stably expressed in HEK293 cells; also called hIL-23R; human IL-23R; not shown: Nanoluc protein (N1371, Promega) at the N-terminus, after a secretion signal
T2 sequence (looked up): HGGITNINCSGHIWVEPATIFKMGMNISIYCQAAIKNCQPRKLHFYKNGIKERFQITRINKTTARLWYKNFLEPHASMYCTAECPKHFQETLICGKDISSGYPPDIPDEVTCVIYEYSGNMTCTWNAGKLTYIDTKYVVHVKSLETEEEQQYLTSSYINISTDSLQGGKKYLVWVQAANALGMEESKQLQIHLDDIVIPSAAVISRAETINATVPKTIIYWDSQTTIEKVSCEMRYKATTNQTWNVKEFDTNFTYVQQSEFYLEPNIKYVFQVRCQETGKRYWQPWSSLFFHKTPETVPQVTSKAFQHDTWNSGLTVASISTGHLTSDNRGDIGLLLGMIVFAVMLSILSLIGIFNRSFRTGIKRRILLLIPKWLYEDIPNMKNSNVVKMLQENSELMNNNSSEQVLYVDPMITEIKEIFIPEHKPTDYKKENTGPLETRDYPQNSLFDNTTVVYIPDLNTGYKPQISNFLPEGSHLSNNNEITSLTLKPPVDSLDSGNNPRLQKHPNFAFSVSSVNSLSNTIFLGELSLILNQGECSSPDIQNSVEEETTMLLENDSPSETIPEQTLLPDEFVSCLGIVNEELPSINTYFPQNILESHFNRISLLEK


Assays:
[1] = target: T1, human IL-23R endogenously expressed on …; test: cell-based or functional assay
[2] = target: T2, Nluc-IL23R fusion protein; test: BRET competition vs TAMRA-labelled peptide, Nluc-IL23R membranes; also: test concentration or dose not given here

hIL-23 (pSTAT3) antagonist % inhibition [1] [%]	hIL-23 (pSTAT3) antagonist IC50 [1]	% displacement [2] [%]	Binder
95	21 nM	–	[4‑Aminomethyl‑phenylacetyl]SCWQC[AEF][2Nal][αMeL]ES-NH2 (lactam (positions not given here); bridge 3-6; not fully specified (bridges)) [Ref 81]
–	21 nM	–	[4‑Aminomethyl‑phenylacetyl]SEWQ[Dab][AEF][2Nal][αMeL]E[Dab]-NH2 (lactam (positions not given here); bridge 3-6; not fully specified (bridges)) [Ref 125]
–	–	92	KTVWQE[AEF][2Nal][Dab]E[Dab][3Pal] (lactam 1-10, 9-C; lactam (positions not given here); not fully specified (bridges); printed as K(1c)(6c)^{†}TVWQE(6c)[Y(2-aminoethoxy)][2-Nal][Dab](7c)E(1c)[Dab][3-(3-Pyridyl)-Ala](7c)^{‡}) [Compound 76]
100	14 pM	–	[β3hK]GWQE[AEF][2Nal][αMeL]E[Dab][3Pal]-NHMe (lactam 1-9; lactam (positions not given here); not fully specified (bridges); also: beta-amine of residue 1 is in one of the two lactams) [Compound 99]
–	–	98	KIVWQE[AEF][2Nal][αMeL]EP[3Pal]-NHMe (lactam 1-10; lactam (positions not given here); not fully specified (bridges); printed as K(1c)(6c)^{†}IVWQE(6c)[Y(2-aminoethoxy)][2-Nal][2-Me-Leu]E(1c)P[3-(3-Pyridyl)-Ala]-[NHMe]) [Compound 63]
